Data published in article PMC12746484, “Growth-coupled selection of 5-aminolevulinic acid synthetase mutants for 5-aminolevulinic acid biosynthesis in Corynebacterium glutamicum” (Frontiers in Microbiology, 2025).

Experiments:
NCC(=O)O = system: T1, NCC(=O)O; test: steady-state kinetics, 5-ALA formation, nonlinear Michaelis-Menten fit; assay type: biochemical, Rhodobacter capsulatus; settings: 37 °C, Tris pH 7.5, pyridoxal phosphate, co-substrate succinyl-CoA, glycine 1-40 mM
T1 construct: codon-optimized hemA cloned in pET28a, expressed in E. coli BL21(DE3), Ni-NTA purified
Excerpt: (§1) steady-state kinetics, 5-ALA formation, nonlinear Michaelis-Menten fit on ALAS from Rhodobacter capsulatus SB1003 (hemA^Rc; pET28a-SB)

[1] = system: T2, CC(C)(COP(=O)(O)OP(=O)(O)OC[C@H]1O[C@@H](n2cnc3c(N)ncnc32)[C@H](O)[C@@H]1OP(=O)(O)O)[C@@H](O)C(=O)NCCC(=O)NCCSC(=O)CCC(=O)O; test: as above; assay type: biochemical, Rhodobacter capsulatus; settings: 37 °C, Tris pH 7.5, pyridoxal phosphate, co-substrate glycine, succinyl-CoA 5-150 μM
T2 construct: codon-optimized hemA cloned in pET28a, expressed in E. coli BL21(DE3), Ni-NTA purified
Excerpt: as §1

ALAS from Rhodobacter capsulatus SB1003 (hemA^Rc; pET28a-SB) (Rhodobacter capsulatus SB 1003), sequence (chain, as listed by the source): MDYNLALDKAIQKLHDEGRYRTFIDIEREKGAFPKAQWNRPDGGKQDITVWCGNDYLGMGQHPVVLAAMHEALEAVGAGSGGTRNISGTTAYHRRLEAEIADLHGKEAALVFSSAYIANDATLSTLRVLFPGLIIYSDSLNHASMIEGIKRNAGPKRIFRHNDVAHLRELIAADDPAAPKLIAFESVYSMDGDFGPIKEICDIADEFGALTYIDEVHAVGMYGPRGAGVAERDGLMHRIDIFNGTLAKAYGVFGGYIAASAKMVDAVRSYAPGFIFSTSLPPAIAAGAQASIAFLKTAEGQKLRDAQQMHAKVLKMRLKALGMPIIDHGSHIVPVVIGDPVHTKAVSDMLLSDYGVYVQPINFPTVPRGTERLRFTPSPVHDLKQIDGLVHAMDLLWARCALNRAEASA
ALAS from Rhodobacter capsulatus SB1003 (hemA^Rc; pET28a-SB) (Rhodobacter capsulatus SB 1003; E27V/F363Y/G105C), sequence (chain, as listed by the source E27V F363Y G105C): as the sequence (chain, as listed by the source) above, with E27V, G105C, F363Y counted along it

Row | Substance | Km (NCC(=O)O) [µM] | kcat (NCC(=O)O) [s⁻¹] | kcat/Km (NCC(=O)O) [M⁻¹ s⁻¹] | Km [1] [µM] | kcat [1] [s⁻¹] | kcat/Km [1] [M⁻¹ s⁻¹]
1 | ALAS from Rhodobacter capsulatus SB1003 (hemA^Rc; pET28a-SB) (Rhodobacter capsulatus SB 1003; E27V/F363Y/G105C) | 2130 ± 220 | 2.94 ± 0.15 | 1270 ± 180 | 16.88 ± 2.21 | 2.94 ± 0.15 | 170000 ± 20000
2 | ALAS from Rhodobacter capsulatus SB1003 (hemA^Rc; pET28a-SB) (Rhodobacter capsulatus SB 1003) | 2660 ± 260 | 2.52 ± 0.22 | 950 ± 230 | 17.5 ± 2.65 | 2.52 ± 0.22 | 140000 ± 30000
